Source: PMC9052121 (RSC Advances, 2020)
Where no end group is shown, it is not given here.

Target: bovine insulin (bovine, UniProt P01317 85-105; P01317 25-54)
Assay: ITC

Chain of bovine insulin (P01317 85-105, chain 1 of 2): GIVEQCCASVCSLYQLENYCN
Chain of bovine insulin (P01317 25-54, chain 2 of 2): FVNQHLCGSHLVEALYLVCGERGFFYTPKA

| binding result | stoichiometry N [peptides per insulin] | Binder |
| --- | --- | --- |
| binds |  | Ac-DIFFRYNGKVWWR (designed binder) [B2T_FF (N-DIFF-RYNGKVWWR-C), de novo designed 13-mer beta-hairpin peptide] |
| binds |  | Ac-KVYYRYNGKVWWR (designed binder) [B2T_KV (N-KVYY-RYNGKVWWR-C), de novo designed 13-mer beta-hairpin peptide] |
|  | 4 | Ac-DITTRYNGKVWWR (designed binder) [B2T_TT (N-DITTRYNGKVWWR-C), de novo designed 13-mer beta-hairpin peptide] |
